In the supplement of paper PMC9112550, “Optimization of the antimicrobial peptide Bac7 by deep mutational scanning” (BMC Biology, 2022):

Test system: Escherichia coli TOP10
Assay: shrunken log2 fold change of peptide-encoding DNA abundance (4.5 h post-induction vs induction); higher = less antimicrobial activity (less host growth inhibition)
Conditions: time post-induction: 4.5 h; library: site-saturation at positions 5, 18, 19, 20
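Further: peptides expressed intracellularly from a pBAD plasmid library in pooled LB shake-flask culture, induced with 0.3% L-arabinose, DNA abundance read by NGS, three biological replicates, DESeq2 with apeglm shrinkage.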

| Sequence | shrunken log2 fold change |
| --- | --- |
| RRIRTRPPRLPRPRPRPSKIPRP | -0.24 |
| RRIRSRPPRLPRPRPRPESRPRP | -0.0244 |
| RRIRFRPPRLPRPRPRPTRAPRP | 0.825 |
| RRIRDRPPRLPRPRPRPWWGPRP | -0.00301 |
| RRIRHRPPRLPRPRPRPRCRPRP | 0.615 |
| RRIRMRPPRLPRPRPRPLTIPRP | 0.19 |
| RRIRKRPPRLPRPRPRPNGFPRP | 0.49 |
| RRIRHRPPRLPRPRPRPDYLPRP | -0.998 |
| RRIRKRPPRLPRPRPRPWSRPRP | -0.0012 |
| RRIRQRPPRLPRPRPRPKHPPRP | -0.0928 |
| RRIRFRPPRLPRPRPRPDRTPRP | -0.0783 |
| RRIRCRPPRLPRPRPRPFMRPRP | 0.0501 |
| RRIRARPPRLPRPRPRPQPMPRP | 0.229 |
| RRIRIRPPRLPRPRPRPMEEPRP | -0.00798 |
| RRIRARPPRLPRPRPRPDDKPRP | -0.112 |
| RRIRIRPPRLPRPRPRPHGGPRP | -0.0479 |
| RRIRFRPPRLPRPRPRPQGIPRP | 0.0254 |
| RRIRSRPPRLPRPRPRPMFKPRP | -0.407 |
| RRIRRRPPRLPRPRPRPWDRPRP | 0.26 |
| RRIRHRPPRLPRPRPRPKAFPRP | 0.0173 |
| RRIRYRPPRLPRPRPRPKGGPRP | 0.0198 |
| RRIRVRPPRLPRPRPRPAFNPRP | -0.416 |
| RRIRHRPPRLPRPRPRPLLVPRP | -0.167 |
| RRIRCRPPRLPRPRPRPETCPRP | 0.0181 |
| RRIRERPPRLPRPRPRPMMEPRP | -0.0582 |

| Sequence | shrunken log2 fold change |
| --- | --- |
| RRIRLRPPRLPRPRPRPYYDPRP | -0.379 |
| RRIRLRPPRLPRPRPRPGIHPRP | -0.322 |
| RRIRSRPPRLPRPRPRPKLAPRP | 0.245 |
| RRIRWRPPRLPRPRPRPNQHPRP | -0.071 |
| RRIRSRPPRLPRPRPRPVSMPRP | 0.0888 |
| RRIRHRPPRLPRPRPRPIMNPRP | -1.05 |
| RRIRDRPPRLPRPRPRPMYEPRP | 0.183 |
| RRIRARPPRLPRPRPRPLAAPRP | 0.942 |
| RRIRNRPPRLPRPRPRPDEHPRP | -0.415 |
| RRIRRRPPRLPRPRPRPKLMPRP | 0.178 |
| RRIRQRPPRLPRPRPRPRIAPRP | 0.111 |
| RRIRPRPPRLPRPRPRPIFIPRP | -0.389 |
| RRIRIRPPRLPRPRPRPCKNPRP | -0.299 |
| RRIRMRPPRLPRPRPRPQMVPRP | -0.243 |
| RRIRSRPPRLPRPRPRPIFNPRP | -0.317 |
| RRIRDRPPRLPRPRPRPTWIPRP | -0.0164 |
| RRIRPRPPRLPRPRPRPYDNPRP | -0.415 |
| RRIRNRPPRLPRPRPRPLFRPRP | -0.266 |
| RRIRGRPPRLPRPRPRPHFIPRP | -0.139 |
| RRIRSRPPRLPRPRPRPKDHPRP | -0.131 |
| RRIRQRPPRLPRPRPRPFYHPRP | -0.368 |
| RRIRCRPPRLPRPRPRPLIEPRP | -0.0593 |
| RRIRQRPPRLPRPRPRPCFFPRP | -0.101 |
| RRIRRRPPRLPRPRPRPSMSPRP | 0.0591 |
| RRIRFRPPRLPRPRPRPCDDPRP | -0.00233 |

| Sequence | shrunken log2 fold change |
| --- | --- |
| RRIRSRPPRLPRPRPRPRITPRP | -0.421 |
| RRIRYRPPRLPRPRPRPEHRPRP | 0.0623 |
| RRIRIRPPRLPRPRPRPMKDPRP | -0.135 |
| RRIRYRPPRLPRPRPRPREAPRP | 0.469 |
| RRIRVRPPRLPRPRPRPRTCPRP | -0.143 |
| RRIRWRPPRLPRPRPRPPFIPRP | -0.117 |
| RRIRSRPPRLPRPRPRPVPHPRP | 0.0775 |
| RRIRMRPPRLPRPRPRPKPEPRP | 0.0854 |
| RRIRTRPPRLPRPRPRPRTQPRP | 0.172 |
| RRIRERPPRLPRPRPRPELQPRP | -0.0137 |
| RRIRARPPRLPRPRPRPKVLPRP | 0.269 |
| RRIRARPPRLPRPRPRPEARPRP | 1.42 |
| RRIRPRPPRLPRPRPRPLKHPRP | -0.221 |
| RRIRQRPPRLPRPRPRPVGNPRP | -0.108 |
| RRIRSRPPRLPRPRPRPHFEPRP | -0.325 |
| RRIRYRPPRLPRPRPRPMWKPRP | -0.00663 |
| RRIRHRPPRLPRPRPRPHQEPRP | -0.0212 |
| RRIRHRPPRLPRPRPRPYERPRP | -0.00674 |
| RRIRMRPPRLPRPRPRPVRSPRP | 1.23 |
| RRIRTRPPRLPRPRPRPGPRPRP | 0.716 |
| RRIRERPPRLPRPRPRPWFEPRP | -0.0941 |
| RRIRPRPPRLPRPRPRPQYCPRP | -0.106 |
| RRIRTRPPRLPRPRPRPIDCPRP | 0.0429 |
| RRIRARPPRLPRPRPRPVPQPRP | 0.271 |
| RRIRMRPPRLPRPRPRPHIIPRP | -0.991 |

| Sequence | shrunken log2 fold change |
| --- | --- |
| RRIRKRPPRLPRPRPRPYDYPRP | -0.0386 |
| RRIRQRPPRLPRPRPRPKPLPRP | 0.176 |
| RRIRKRPPRLPRPRPRPKFPPRP | 0.134 |
| RRIRSRPPRLPRPRPRPAKSPRP | 0.0744 |
| RRIRSRPPRLPRPRPRPFLHPRP | -0.174 |
| RRIRMRPPRLPRPRPRPENIPRP | 0.0472 |
| RRIRTRPPRLPRPRPRPVQAPRP | 0.0641 |
| RRIRMRPPRLPRPRPRPACDPRP | 0.974 |
| RRIRHRPPRLPRPRPRPYKCPRP | -0.0105 |
| RRIRFRPPRLPRPRPRPDRIPRP | 0.0156 |
| RRIRWRPPRLPRPRPRPRGLPRP | 0.698 |
| RRIRSRPPRLPRPRPRPRLMPRP | 0.198 |
| RRIRYRPPRLPRPRPRPDKDPRP | -0.151 |
| RRIRHRPPRLPRPRPRPCVAPRP | 0.0478 |
| RRIRVRPPRLPRPRPRPGPVPRP | 0.287 |
| RRIRKRPPRLPRPRPRPNRDPRP | 0.169 |
| RRIRCRPPRLPRPRPRPSTAPRP | 0.0354 |
| RRIRHRPPRLPRPRPRPVVEPRP | -0.0145 |
| RRIRPRPPRLPRPRPRPGDFPRP | -0.0208 |
| RRIRVRPPRLPRPRPRPHEEPRP | 0.0138 |
| RRIRMRPPRLPRPRPRPQYAPRP | 0.0122 |
| RRIRKRPPRLPRPRPRPPMLPRP | 0.203 |
| RRIRWRPPRLPRPRPRPTKKPRP | 0.0726 |
| RRIRTRPPRLPRPRPRPFMPPRP | -0.618 |
| RRIRFRPPRLPRPRPRPAKTPRP | -0.0138 |

| Sequence | shrunken log2 fold change |
| --- | --- |
| RRIRCRPPRLPRPRPRPCRWPRP | -0.103 |
| RRIRGRPPRLPRPRPRPSNSPRP | -0.203 |
| RRIRSRPPRLPRPRPRPCPHPRP | -0.283 |
| RRIRPRPPRLPRPRPRPPSTPRP | 0.123 |
| RRIRHRPPRLPRPRPRPLYMPRP | -0.00599 |
| RRIRERPPRLPRPRPRPSFWPRP | 0.132 |
| RRIRFRPPRLPRPRPRPHRVPRP | -0.137 |
| RRIRIRPPRLPRPRPRPPVVPRP | 0.0726 |
| RRIRVRPPRLPRPRPRPQCYPRP | -0.189 |
| RRIRMRPPRLPRPRPRPCIAPRP | 0.099 |
| RRIRRRPPRLPRPRPRPNIDPRP | -0.0882 |
| RRIRNRPPRLPRPRPRPPCHPRP | -0.386 |
| RRIRMRPPRLPRPRPRPMMVPRP | -0.00664 |
| RRIRNRPPRLPRPRPRPVCWPRP | 0.469 |
| RRIRKRPPRLPRPRPRPLMLPRP | 0.007 |
| RRIRCRPPRLPRPRPRPQLHPRP | -0.213 |
| RRIRKRPPRLPRPRPRPMKQPRP | -0.108 |
| RRIRSRPPRLPRPRPRPYYKPRP | -0.892 |
| RRIRGRPPRLPRPRPRPYPVPRP | 0.0121 |
| RRIRTRPPRLPRPRPRPIRCPRP | 0.0185 |
| RRIRMRPPRLPRPRPRPWRQPRP | 0.331 |
| RRIRYRPPRLPRPRPRPNASPRP | -0.088 |
| RRIRNRPPRLPRPRPRPEYIPRP | -0.0947 |
| RRIRRRPPRLPRPRPRPNNKPRP | -0.24 |
| RRIRYRPPRLPRPRPRPFDHPRP | -0.0332 |

| Sequence | shrunken log2 fold change |
| --- | --- |
| RRIRHRPPRLPRPRPRPSHRPRP | -0.548 |
| RRIRARPPRLPRPRPRPKNAPRP | 0.323 |
| RRIRSRPPRLPRPRPRPGVYPRP | -0.0749 |
| RRIRYRPPRLPRPRPRPKKFPRP | -0.0477 |
| RRIRTRPPRLPRPRPRPDVLPRP | -0.208 |
| RRIRCRPPRLPRPRPRPGLAPRP | 0.544 |
| RRIRKRPPRLPRPRPRPRSFPRP | -0.0333 |
| RRIRSRPPRLPRPRPRPEGPPRP | 0.114 |
| RRIRRRPPRLPRPRPRPLRFPRP | 0.836 |
| RRIRHRPPRLPRPRPRPTFKPRP | -0.537 |
| RRIRRRPPRLPRPRPRPHISPRP | -0.0794 |
| RRIRGRPPRLPRPRPRPVQEPRP | 0.873 |
| RRIRARPPRLPRPRPRPCAPPRP | 0.384 |
| RRIRHRPPRLPRPRPRPMPSPRP | 0.0183 |
| RRIRERPPRLPRPRPRPRHGPRP | -0.467 |
| RRIRMRPPRLPRPRPRPDYNPRP | -0.21 |
| RRIRSRPPRLPRPRPRPQIQPRP | -0.118 |
| RRIRIRPPRLPRPRPRPLLFPRP | -0.553 |
| RRIRSRPPRLPRPRPRPQAQPRP | -0.121 |
| RRIRQRPPRLPRPRPRPYQFPRP | -0.168 |
| RRIRQRPPRLPRPRPRPQWVPRP | 0.0126 |
| RRIRNRPPRLPRPRPRPDLLPRP | -0.0183 |
| RRIRERPPRLPRPRPRPPVDPRP | 0.125 |
| RRIRKRPPRLPRPRPRPDAKPRP | 0.165 |
| RRIRFRPPRLPRPRPRPHICPRP | -0.0238 |
